The test concerns the target T1, CD200R(1)-rCD4d3+4 (extracellular domains of mouse CD200R allele 1 fused to rat CD4 domains 3 and 4) (mouse, UniProt Q9ES57 26-238, biotin at the biotinylation site).
T1 construct: mouse CD200R, allele CD200R(1) of C57BL/6 mice, the two extracellular domains; also called mCD200R; CD200R(1) rCD4d3+d4; source: 293T cells, transfected (pEF-BOS), tissue culture supernatant concentrated and biotinylated
T1 sequence (looked up): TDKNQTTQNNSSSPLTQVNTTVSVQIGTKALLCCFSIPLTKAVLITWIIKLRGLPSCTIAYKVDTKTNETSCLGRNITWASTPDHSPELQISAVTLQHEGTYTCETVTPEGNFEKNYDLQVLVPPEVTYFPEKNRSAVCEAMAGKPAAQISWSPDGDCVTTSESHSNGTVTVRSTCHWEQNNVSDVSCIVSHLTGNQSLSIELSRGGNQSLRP
The test is described as follows: SPR; biotinylated CD200R(1)-rCD4d3+4, CD200R(2)-rCD4d3+4 and rCD4d3+4 from tissue culture supernatants immobilized on streptavidin coupled CM5 chip (726, 704, 681 RU); purified, gel filtered CD200-rCD4d3+4 (0.75 µM) passed over; BIAcore 3000, 25°C. The note with it: both partners purified. (In general: In SPR one partner is held on a chip, and binding of the other changes the refractive index at the surface.)

B1: mouse CD200-rCD4d3+4 (extracellular domains of mouse CD200 fused to rat CD4 domains 3 and 4) (ligand, UniProt O54901 31-232, looked up)
chain: QVEVVTQDERKALHTTASLRCSLKTSQEPLIVTWQKKKAVSPENMVTYSKTHGVVIQPAYKDRINVTELGLWNSSITFWNTTLEDEGCYMCLFNTFGSQKVSGTACLTLYVQPIVHLHYNYFEDHLNITCSATARPAPAISWKGTGTGIENSTESHFHSNGTTSVTSILRVKDPKTQVGKEVICQVLYLGNVIDYKQSLDKG
modifications: biotin at the biotinylation site (form put on streptavidin coated fluorescent beads)
notes: mouse CD200, extracellular domains; also called soluble CD200; soluble purified CD200; source: 293T cells, transfected (pEF-BOS), tissue culture supernatant concentrated and biotinylated (on beads); purified and gel filtered (SPR)
For B1, the binding result is “binds”.

The values are drawn from paper PMC3653949, “Dissection of Agonistic and Blocking Effects of CD200 Receptor Antibodies” (PLoS ONE, 2013).
